The text below walks through data of patent US20190248900A1.

The target in assay [1] is human PD-1 (NM_005018.2) over-expressed on cells (human) (UniProt Q15116). The assay can be described thus: flow cytometry, 18 nM, panel 45D6.
Assay [2] shares this target. The assay can be described thus: flow cytometry, 18 nM, panel 49A2. (Flow cytometry measures light scatter and fluorescence of single cells or particles in a stream.)
The target in assay [3] is T1, ITGA6-Fc.
T1 sequence (P23229 whole entry, species assumed, looked up): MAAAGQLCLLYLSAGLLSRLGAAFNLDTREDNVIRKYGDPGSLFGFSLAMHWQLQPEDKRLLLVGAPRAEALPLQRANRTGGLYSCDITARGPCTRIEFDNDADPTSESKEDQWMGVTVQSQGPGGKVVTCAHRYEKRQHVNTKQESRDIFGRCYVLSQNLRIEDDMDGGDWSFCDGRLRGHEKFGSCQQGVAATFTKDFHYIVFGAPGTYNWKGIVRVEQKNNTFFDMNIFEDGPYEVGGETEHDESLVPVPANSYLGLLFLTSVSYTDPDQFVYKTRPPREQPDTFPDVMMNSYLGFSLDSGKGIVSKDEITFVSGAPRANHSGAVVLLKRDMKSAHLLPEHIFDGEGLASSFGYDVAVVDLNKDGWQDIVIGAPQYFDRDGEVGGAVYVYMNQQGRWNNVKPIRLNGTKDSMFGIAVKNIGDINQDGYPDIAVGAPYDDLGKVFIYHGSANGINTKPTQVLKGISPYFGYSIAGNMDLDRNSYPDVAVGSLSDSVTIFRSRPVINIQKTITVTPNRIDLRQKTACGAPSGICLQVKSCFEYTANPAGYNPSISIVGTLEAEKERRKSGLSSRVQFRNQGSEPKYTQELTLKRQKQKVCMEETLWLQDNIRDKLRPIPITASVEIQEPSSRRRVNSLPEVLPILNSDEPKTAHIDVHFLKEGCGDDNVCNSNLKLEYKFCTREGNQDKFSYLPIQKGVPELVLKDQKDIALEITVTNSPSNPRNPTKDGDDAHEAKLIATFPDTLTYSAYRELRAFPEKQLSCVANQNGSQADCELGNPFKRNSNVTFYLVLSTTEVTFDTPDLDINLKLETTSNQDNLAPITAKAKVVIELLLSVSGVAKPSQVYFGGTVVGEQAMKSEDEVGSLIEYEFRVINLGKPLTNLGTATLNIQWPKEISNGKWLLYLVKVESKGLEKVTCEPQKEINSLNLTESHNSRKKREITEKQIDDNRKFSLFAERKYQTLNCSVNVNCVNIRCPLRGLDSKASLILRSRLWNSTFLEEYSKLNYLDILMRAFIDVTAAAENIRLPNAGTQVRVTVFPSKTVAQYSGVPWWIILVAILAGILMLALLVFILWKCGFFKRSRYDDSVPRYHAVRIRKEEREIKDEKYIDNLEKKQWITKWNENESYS
The assay can be described thus: ELISA (control row). In general terms: In an ELISA, binding on a coated surface is turned into a signal by an enzyme label.

For assay [4], the target named is T1, ITGA6-Fc. The assay can be described thus: ELISA, 1 ug/ml.

Chain of human PD-1 (NM_005018.2) over-expressed on cells (human) (Q15116 25-288): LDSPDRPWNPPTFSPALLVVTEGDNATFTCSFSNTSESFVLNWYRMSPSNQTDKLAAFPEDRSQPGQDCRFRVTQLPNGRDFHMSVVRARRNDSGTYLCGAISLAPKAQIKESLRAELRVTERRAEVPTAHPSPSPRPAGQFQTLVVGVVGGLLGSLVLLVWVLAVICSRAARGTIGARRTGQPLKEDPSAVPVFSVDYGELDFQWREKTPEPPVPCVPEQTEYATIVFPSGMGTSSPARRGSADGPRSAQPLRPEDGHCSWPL
Chain of Pembrolizumab (antibody) (VH): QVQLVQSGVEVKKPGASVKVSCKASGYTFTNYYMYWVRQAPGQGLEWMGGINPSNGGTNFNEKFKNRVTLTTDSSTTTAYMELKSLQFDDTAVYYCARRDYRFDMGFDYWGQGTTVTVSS
Chain of Pembrolizumab (antibody) (VL): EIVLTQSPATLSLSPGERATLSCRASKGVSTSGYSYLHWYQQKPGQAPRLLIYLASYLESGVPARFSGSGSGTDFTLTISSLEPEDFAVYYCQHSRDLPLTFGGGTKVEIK

For IgG (antibody), the Geometric Mean in assay [1] and in assay [2] was 50 throughout.
Take Nivolumab (antibody): the OD490 in assay [3] and in assay [4] was 0.3 each time.
For Pembrolizumab (antibody), the OD490 in assay [3] and in assay [4] was 0.1 each time.
